Reference: patent US20130129753A1 (Pfizer, published 2013)

T1: IL-13Rα2 receptor (human, UniProt Q14627 27-380)
T1 sequence (looked up): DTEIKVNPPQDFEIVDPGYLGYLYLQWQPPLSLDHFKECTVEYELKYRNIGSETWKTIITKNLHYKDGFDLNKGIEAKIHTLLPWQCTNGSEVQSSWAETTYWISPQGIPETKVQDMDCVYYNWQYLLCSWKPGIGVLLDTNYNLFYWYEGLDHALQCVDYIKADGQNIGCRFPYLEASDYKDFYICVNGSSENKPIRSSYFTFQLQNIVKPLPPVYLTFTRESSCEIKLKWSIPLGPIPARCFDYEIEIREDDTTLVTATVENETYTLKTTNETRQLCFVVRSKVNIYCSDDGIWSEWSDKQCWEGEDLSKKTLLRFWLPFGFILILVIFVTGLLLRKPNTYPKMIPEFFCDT

B1: Notch-75-v1913-hG1-(C)_mcValCitPABC-#54 (antibody, human IgG1, kappa, V domains shown)
VH: EVQLVESGGGLVQPGGSLRLSCAASGYAFTDYWMTWVRQAPGKGLEWVAEISPNSGGTNFNEKFKGRFTISVDNAKNSLYLQMNSLRAEDTAVYYCARGEIRYNWFAYWGQGTLVTVSS
VL: DIQMTQSPSSLSASVGDRVTITCKASQNVGNNIAWYQQKPGKAPKLLIYYASNRYTGVPSRFSGSGYGTDFTLTISSLQPEDFATYYCQRLYNSPFTFGGGTKVEIKR
modifications: drug-linker mcValCitPABC-#54 on cysteine (C), positions not given; drug-linker mcValCitPABC-#54 on cysteine (C), positions not given; DAR 3.8 per antibody
B2: Notch-75-v1913-hG1-(C)_mcValCitPABC-#112 (antibody, human IgG1, kappa, V domains shown)
VH: B1 VH
VL: B1 VL
modifications: drug-linker mcValCitPABC-#112 on cysteine (C), positions not given; drug-linker mcValCitPABC-#112 on cysteine (C), positions not given; DAR 4.2 per antibody
B3: IL13Ra2-AB08-v1010-hG1-(C)_mcValCitPABC-#54 (antibody, V domains shown)
VH: EVQLVESGGGLVQPGGSLRLSCAASGFTFSRNGMSWVRQAPGKGLEWVATVSSGGSYIYYADSVKGRFTISRDNAKNSLYLQMNSLRAEDTAVYYCARQGTTALATRFFDVWGQGTLVTVSS
VL: DIQMTQSPSSLSASVGDRVTITCKASQDVGTAVAWYQQKPGKAPKLLIYSASYRSTGVPSRFSGSGSGTDFTLTISSLQPEDFATYYCQHHYSAPWTFGGGTKVEIKT
modifications: drug-linker mcValCitPABC-#54 on cysteine (C), positions not given; drug-linker mcValCitPABC-#54 on cysteine (C), positions not given; DAR 3.2 per antibody
B4: IL13Ra2-AB08-v1010-hG1-(C)_mcValCitPABC-#226 (antibody, V domains shown)
VH: B3 VH
VL: B3 VL
modifications: drug-linker mcValCitPABC-#226 on cysteine (C), positions not given; drug-linker mcValCitPABC-#226 on cysteine (C), positions not given; DAR 3 per antibody
B5: IL13Ra2-AB08-v1010-hG1-(C)_mc-#115 (antibody, V domains shown)
VH: B3 VH
VL: B3 VL
modifications: drug-linker mc-#115 on cysteine (C), positions not given; drug-linker mc-#115 on cysteine (C), positions not given; DAR 4.3 per antibody
B6: IL13Ra2-AB08-v1010-hG1-(C)_mc-0#118 (antibody, V domains shown)
VH: B3 VH
VL: B3 VL
modifications: drug-linker mc-0#118 on cysteine (C), positions not given; drug-linker mc-0#118 on cysteine (C), positions not given; DAR 3.2 per antibody
B7: IL13Ra2-AB08-v1010-hG1-(C)_Mal(H2O)Peg6C2-0#118 (antibody, V domains shown)
VH: B3 VH
VL: B3 VL
modifications: drug-linker Mal(H2O)Peg6C2-0#118 on cysteine (C), positions not given; drug-linker Mal(H2O)Peg6C2-0#118 on cysteine (C), positions not given; DAR 2.9 per antibody
B8: IL13Ra2-AB08-v1010-hG1-(C)_mc-#117 (antibody, V domains shown)
VH: B3 VH
VL: B3 VL
modifications: drug-linker mc-#117 on cysteine (C), positions not given; drug-linker mc-#117 on cysteine (C), positions not given; DAR 3.3 per antibody
B9: IL13Ra2-AB08-v1010-hG1-(C)_MalPeg6C2-#117 (antibody, V domains shown)
VH: B3 VH
VL: B3 VL
modifications: drug-linker MalPeg6C2-#117 on cysteine (C), positions not given; drug-linker MalPeg6C2-#117 on cysteine (C), positions not given; DAR 3.3 per antibody
B10: IL13Ra2-AB08-v1010-hG1-(C)_mcValCitPABC-#112 (antibody, V domains shown)
VH: B3 VH
VL: B3 VL
modifications: drug-linker mcValCitPABC-#112 on cysteine (C), positions not given; drug-linker mcValCitPABC-#112 on cysteine (C), positions not given; DAR 4 per antibody
B11: humanized antibody hu08 (antibody, V domains shown)
VH: B3 VH
VL: B3 VL
notes: Unconjugated antibody; also called hu08v1.0/1.0; IL13Ra2-AB08-v1010-hG1
B12: Notch-28-v1010-hG1-(C)_mcValCitPABC-#54 (antibody, human IgG1, kappa, V domains shown)
VH: EVQLVESGGGLVQPGGSLRLSCAASGFTFRDYGMTWVRQAPGKGLEWVAYISSGSNYIYYAEAVKGRFTISRDNAKNSLYLQMNSLRAEDTAVYYCARRGPFVLDAWGQGTLVTVSS
VL: DIQMTQSPSSLSASVGDRVTITCKASQSINRYLHWYQQKPGKAPKLLIYNANGLQTGVPSRFSGSGSGTDFTLTISSLQPEDFATYYCLQHNTWPDTFGGGTKVEIKR
modifications: drug-linker mcValCitPABC-#54 on cysteine (C), positions not given; drug-linker mcValCitPABC-#54 on cysteine (C), positions not given; DAR 3.9 per antibody
B13: Notch-28-v1010-hG1-(C)_mcValCitPABC-#112 (antibody, human IgG1, kappa, V domains shown)
VH: B12 VH
VL: B12 VL
modifications: drug-linker mcValCitPABC-#112 on cysteine (C), positions not given; drug-linker mcValCitPABC-#112 on cysteine (C), positions not given; DAR 3.9 per antibody

Assays:
Notch receptor = Notch receptor (human); assay: cell-based or functional assay
IL-13Rα2 receptor [1] = target: T1, IL-13Rα2 receptor; assay: cell-based or functional assay
IL-13Rα2 receptor [2] = target: T1, IL-13Rα2 receptor; assay: statement in the example section; no binding assay described

Binder | IC50 (ng Ab/mL), MTS viability of HCC2429 cells (repeat 1) (Notch receptor) [ng Ab/mL] | IC50 (ng Ab/mL), MTS viability of HCC2429 cells (repeat 2) (Notch receptor) [ng Ab/mL] | IC50 (ng Ab/mL), MTS viability of MDA-MB-468/hNotch cells (repeat 1) (Notch receptor) [ng Ab/mL] | IC50 (ng Ab/mL), MTS viability of MDA-MB-468/hNotch cells (repeat 2) (Notch receptor) [ng Ab/mL] | IC50 (ng Ab/mL), MTS viability of OVCAR3 cells (Notch receptor) [ng Ab/mL] | IC50 (ng Ab/mL), viability of A375 cells (IL-13Rα2 receptor [1]) [ng Ab/mL] | IC50 (ng Ab/mL), viability of PC3MM2 cells (IL-13Rα2 receptor [1]) [ng Ab/mL] | further results
B1 | 611 | 3300 | 37 | 36 | 515 | – | – | IC50 (ng Ab/mL), MTS viability of MDA-MB-468 cells (Notch receptor): 7000 ng Ab/mL; IC50 (ng Ab/mL), MTS viability of U2OS/hNotch cells (Notch receptor): 523 ng Ab/mL
B2 | 214 | 630 | 26 | 25 | 254 | – | – | –
B3 | – | – | – | – | – | 3.8 | 2.5 | –
B4 | – | – | – | – | – | 2.9 | 1.5 | –
B5 | – | – | – | – | – | 2.2 | 1.2 | –
B6 | – | – | – | – | – | 2.1 | 1.3 | –
B7 | – | – | – | – | – | 4.9 | 2.9 | –
B8 | – | – | – | – | – | 2.4 | 1.1 | –
B9 | – | – | – | – | – | 3.4 | 3.5 | –
B10 | – | – | – | – | – | 2.2 | 1.2 | –
B11 | – | – | – | – | – | – | – | binding result (IL-13Rα2 receptor [2]): binds
B12 | 473 | 2940 | 3.2 | 3 | 306 | – | – | IC50 (ng Ab/mL), MTS viability of MDA-MB-468 cells (Notch receptor): 6540 ng Ab/mL; IC50 (ng Ab/mL), MTS viability of U2OS/hNotch cells (Notch receptor): 1330 ng Ab/mL
B13 | 148 | 2050 | 1.3 | 3 | 17 | – | – | –
